Assay: yeast display, Sf9 membrane polyspecificity reagent, FACS + sequencing; frameworks hold sequencing errors
Summary of the method: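 Genes from sorted yeast were amplified by colony PCR, read by MiSeq 2 × 250 sequencing and filtered on CDR length. These cells carried a synthetic nanobody library in Saccharomyces cerevisiae BJ5465 and were sorted by FACS into low and high (top ~1%) gates on anti-HA and streptavidin fluorescence. Polyreactivity is labelled according to the gate of origin.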

Sequence: QVQLVESGGGLVQAGGSLRLSCAASGIIFQRNAMGWYRQAPGKERELVAAISASGGSTNYADSVKGRFTISRDNAKNTVSLQMNSLKPEDTAVYYCAAEDDGDFDYWGQGTQVTVSS
- polyreactivity (PSR sort gate): low polyreactivity

Sequence: QVQLVESGGGLVQAGGSLRLSCAASGSILKFNAMGWYRQAPGKERELVAAITRGTNTYYADSVKGRFTISRDNANNTFFLQMNSLKPEDTAVYYCAARLPYNAIGYYYWGQGTQVTVSS
- polyreactivity (PSR sort gate): low polyreactivity

Sequence: QVQLVESGGGLVQAGGSLRLSCAASGIIFAYYAMGWYRQAPGKERELVAAIDYSGASTYYADSVKGRFTISRDNAKNTVYLQMNSLKPEDTAVYYCNADDFGYASYEYWGQGTQVTVSS
- polyreactivity (PSR sort gate): low polyreactivity

Sequence: QVQLVESGGGLVQAGGSLRLSCAASGSIFAYNVMGWYRQAPGKEREFVAAISSGGRTTYADSVKGPFTISRDNAKNTVYLQMNSLKAEDTAVYYFNAYFLVHYRRLRPYEYWGQGTQVTVSS
- polyreactivity (PSR sort gate): low polyreactivity

Sequence: QVQLVESGGGLVQAGGSLRLSCAASGSIVRSYAMGWYRQAPGKERELVASITDGTITNYADSVKGRFTISRDNAKNTVYLQMISLKPDDTAVYYCAAGTLAHAYVVRPIEMDYWGQGTQVTVSS
- polyreactivity (PSR sort gate): low polyreactivity

Sequence: QVQLVESGGGLVQAGGSLRLSCAASGRTFWVYAMGWYRQAPGKERELVAAISLSGVSTYYADSVKGRFTISRDNAKNTVYLQMNSLKPDDTAVYYCAAPLIYTPLKYHYWGQGTQVTVSS
- polyreactivity (PSR sort gate): low polyreactivity

Sequence: QVQLVETGGGLVQAGGSLRLSCAASGRTIGFYAMGWYRQAPGKERELVAAINRSGDSTYYADSVKGRFTISRDNAKNTVYLHMNSLKPEDTAVYYCAARRSTGYGYWGQGTQVTVSS
- polyreactivity (PSR sort gate): high polyreactivity

Sequence: QVQLVESGGGLVQAGGILRLSCAASGSIFDVYAMGWYRQAPGKERELVAAISRSGGRTYYADSVKGRFTISRDNAKNRVYLQMNSLKPEDTAVYYCATYPCNWDLDYWGHGTQVTVSS
- polyreactivity (PSR sort gate): high polyreactivity

Sequence: QVQLVESGGGLVQAGGSLRLSCAASGRTFGNNAMGWYRQAPGKERELVASISSSGGTNYADSVKGRFTISRDNAKNTVYLLMNSLIPEDTAVYYCAKRKFTARQRFWGQGTQVTVSS
- polyreactivity (PSR sort gate): high polyreactivity

Sequence: QVQLVESGGGLVQAGGSLRLSCAASGRIFWPYAMGWYRQAPGKERELVAAISSSGGSTYYADSVKGRFTISRDNAKNTVYLQRNSLKPEDTAVYYCNAYSGLSYRYGYSYWGQGTQVTVSS
- polyreactivity (PSR sort gate): high polyreactivity

Sequence: QVQLVESGGGLVQAGGSLRLSCAASGLIFGRNAMGWYRQAPGKERELVAAISWSGGSTYYADSVKGRFTISRDNAKNTVYLEMKSLKPEDTAVYYCYRYRYYGSEDDYWGQCTQVTVSS
- polyreactivity (PSR sort gate): high polyreactivity

Sequence: QVQLVESGGGLDQAGGSLRLSCAASGFTFARYTMGWYRQAPGKEREFVAAISWSGGRTYYADSVKGRFTISRDNAKNTVYLQMNSLKPEDTAVYYCAARRKTTKYDYWGQGTQVTVSS
- polyreactivity (PSR sort gate): high polyreactivity

Sequence: QVQLVESGGGLVQAGGSLRLSCAASGRIFDLKAMGWYRQAPGERKGVGCLYFLVWWSTYYADSVKGRFTISRDNAKNTVYLQMNSLKPVDTAVYYCAAVYFYSWEGDGDYWGQGTQVTVSS
- polyreactivity (PSR sort gate): low polyreactivity

Sequence: QVQLVESGGGLVQAGGSLRLSCAASGRTFRYNAMGWYRQAPGKERELVAVINSNGGSTYYADSVKGRFTISRDNAKNTVYLQMNSLKPEDTAVYYCAADYLRIQEYDYWGQGTQVTVSS
- polyreactivity (PSR sort gate): low polyreactivity

Sequence: QVQLVESGGGLVQAGGSLRLSCAASGFIFADYAMGWYRQAHGKERELVAAITRSGGRTYYADSVKGRFTISRDTAKNTVYVQMNSLKPDDTAVYYCNAGYAHTYDYWGQGTQVTVSS
- polyreactivity (PSR sort gate): high polyreactivity

Sequence: QVQLVESGGGLVQAGGSLRLSCAASGSIFYAYVMGWYRQAPGKERELVAAISSRGGSTHYADSVKGRFTISRDNAKNTVYLQMNSLKPEDTAVYYCAAARGKDGYWGQGTQVTVSS
- polyreactivity (PSR sort gate): high polyreactivity

Sequence: QVQLEESGGGLVQAGGSLRLSCAGSGRIFAYYPMGWYRQAPGKERELVAAISRSGVSTYYADSVKGRFTISRDNAKNTVYLQMNSLKPEDTAVYYCAATYWRRGGYRMEYWGQGTQVTVSS
- polyreactivity (PSR sort gate): low polyreactivity

Sequence: QVQLVESGGGLGQAGGSLRLICAASGFIFRYNAMGWYRQAPGKERELVAGISRSGGRTYYADSVKGRFTISRDNAKNTVYLQMNSLKPEDTAVYYCNAEWVGGAGGYYYWGQGTQVTVSS
- polyreactivity (PSR sort gate): low polyreactivity

Sequence: QVQLVESGGGLVQAGGSLRLSCAASGFTFRYNAMGWYRQAPGKERELVATISWRGTSTYYADSVKGRFTISRDNAKNTVYLQMNSLKPEDTAVYYCATRSRDQYSVSYRLDYWGQGTQVTVSS
- polyreactivity (PSR sort gate): low polyreactivity

Sequence: QVQLVESGGGLVQAGGSLRLSCAASGFTFRIYTMVWYRPAPRKERELVAAISSRGGSTYYADSVKGRFTISRDNAKNTVYLQMNSLKPEDTAVYYCAASGRVYSSGYDYWGQGTQVTVSS
- polyreactivity (PSR sort gate): high polyreactivity

Sequence: QVQLGESGGGLVQAGGSLRLRCAASGRIFNGYTMGWYRQAPGKERELVAAISRGGSTYYADSVKGRLTISRDNAKNTVYLLMNSLKPEDTAVYYCAASHRFGYEYWGHGTQVTVSS
- polyreactivity (PSR sort gate): high polyreactivity

Sequence: QVQLVESGGGLVQAGGSLRLSCAASGLTFDWYTMGWYRQAPGKERELVATINSGGSTDYADSVKGRFTISRDNAKNTVYLQMNSLKPEDTAVYYCNAEYGYSGVGDDYWGQGTQVTVSS
- polyreactivity (PSR sort gate): low polyreactivity

Sequence: QVQLVESGGGLVQAGGSLRLSCAASGRISTYTMGWYRQAPGKERELVATISTHASTNYSDSVKGRFTISRDNAKYTVYLQKYSMKPEDNAVFYCATTVPVILYVTPSTYAVVGYEYWGQGTQVTVSS
- polyreactivity (PSR sort gate): low polyreactivity

Sequence: QVQLVESGGGIVQAGGSLRLRCAASVRIFPCNTMGWYRQAPGKERELVAGINNGDRTYYADSVKGRFTISRDYAKNTVYLQMNILKPEDTAVYYCAADYVYFYFYGYDSWGQRTQVTVSS
- polyreactivity (PSR sort gate): low polyreactivity

Sequence: QVQLVESGGGLVQAGGSLRLSCAASGGTFGLNAMGWYRQAPGKERELVAAITVTGGSDTYYADSVKGRFTISRDNAKNTVYLQMNSLKPEDTAVYYCAADIGKLYDYWGQGTQVTVSS
- polyreactivity (PSR sort gate): low polyreactivity

Sequence: EVQLVESGGGLVQPGGSLRLSCAASGYIYSRYRMGWYRQAPGKGREFVAAISGGSSTNYADSVKGRFTISRDNSKNTVYLQMNSLRAEDTAVYYCAAYQIDSDPRVYWGQGTQVTVSS
- polyreactivity (PSR sort gate): low polyreactivity

Sequence: QVQVVESVGGLVQAGGILRLSCAASGRTFRGNAMGWYRQAPGKERELVAAISSSGARTYYADSVKGRFTISRDNAKNTVYLQMNSLKPEDTAVYYCAAVYTDGALQGYDYWGQGTQVTVSS
- polyreactivity (PSR sort gate): low polyreactivity

Sequence: QVQLVESGGGLVQAGGSLRLSCAASGRTFYLYTMGWYRQAPGKERELVAAINGSGGSTYYADSVKGRFTISRDNAKNTVYLQMNSLKPEATAVYYCAVLYRYGYDYWGQGTQVTVSS
- polyreactivity (PSR sort gate): low polyreactivity

Sequence: QVQLVESGGGLVQAGGRLRLSCAASGLTFASYALGWYRQAPGKERELVARISRSGGSTYYADSVKGRFTISRDNAKNTVYLQMNSLIPEDTAVYYCAADYIFRRYPVGGIYDYDYWGQGTQVTLSS
- polyreactivity (PSR sort gate): high polyreactivity

Sequence: QFQLVESGGGLVQAGGSLRLSCAASGFIFYKYAMGGYRQAPGKERELVAAISSGGSPYYADSVKGRFTISRDNAKNTVYLQMNSLKPEDTAVYYCNKVYRSYRSGFYGGDYWGQGTQVTVSS
- polyreactivity (PSR sort gate): high polyreactivity

Sequence: QVQLVESGGGLVQAGGSLRLSCAASGYTFSPNDMGWYRKAPGKERELVAAITSSVGSTYYADSVKGRFTISRDNAKNTVYLQMNSLKPEDTAVYYCARTYQVGDSIDDYWGQGTQVTVSS
- polyreactivity (PSR sort gate): low polyreactivity

Sequence: QVQRVESGGGLVQAGGSLRLSCAASGSTFWFNAMGWYRQAPGKERELVAAITYRGASTNYADSVKGRFTISRDNAKNTVYLQMNSLKPEDTAVYYCATRPTWRPVPDSDVSTYGYWGQGTQVTVSS
- polyreactivity (PSR sort gate): low polyreactivity

Sequence: QVQLVESGGGLVQAGGSLRLSCAASGRTLPYYMGWYRQAPGKERELVAAITNGDSTYYADSVKGRFTISRDNAKNTVYLQMNSLKPEDTAVYYCNVVTYVKYGYWGQGTQVTVSS
- polyreactivity (PSR sort gate): high polyreactivity

Sequence: QVQLVESGGGLVQAGGSLRLSCAASGFTVTRYAMGWYRQAPGKERELVAAITRSGSSTSYADSVKGRFTISRDNAKNTVSLQINSLKPEDTAVYYCAARLHSPRYRYDYWGQGTQVTVSS
- polyreactivity (PSR sort gate): high polyreactivity

Sequence: QVQLVESGGGLVQAGGSLRLSCAASGITFRRYAMGWYRQAPGKERELVAAISRSGGSTRYADSVKGRFTISRDNAKNTVYLLMNSLKPEDTAVYYCAADGVPGRAVDYEYWGQGTQVTVSS
- polyreactivity (PSR sort gate): high polyreactivity

Sequence: QVQLVESGGGLVQAGGSLRLSCAASGSTSANYAMGWYRPAPGKERELVAAISGGARTNYADSVKGRFTISRDNAKNTVYLQMNSLKPEDTAVYYCATDAYYYNLLYLFPRYDYWGQGTQVTVSS
- polyreactivity (PSR sort gate): low polyreactivity

Sequence: QVQLVESGGGLVQAGGSLRLSCAASGLTIRYYAMGWYRQAPGKERELVAAITRGGSTYYADSVKGRFTISRDNAKNTVYLQMNSLKPDDTAVYYCAAYDVRYNTYDYDYWGQGTQVTVSS
- polyreactivity (PSR sort gate): high polyreactivity

Sequence: QVQLVESGGGLVQAGGSLRISCAASGFTFGRYAMGWYRQAPGKEREFVASISARGGNTFYADSVKGRFTISRDNAKNTVYLQMTSLKPEDTAVYYCNALTYFKRSEYYWGQGTQVTVSS
- polyreactivity (PSR sort gate): high polyreactivity

Sequence: QVQLVESGGGLVQAGGSLRLSCAASGRIFYPNAMGWYRQAPGKERELVAAISWSGGSTYYADSVKGRFTISRDNAKNTVYLQMNSLKPEDTAVYFCAAKPYQVSSYDFSLRDYWGQGTQVTVSS
- polyreactivity (PSR sort gate): low polyreactivity

Sequence: QEQLVESGGGFVQAGGSLRLSCAASGRIFTGYAMGWYRQAPGKERELVAVITWSTGSSTYYADSVKGRFTISRDNAKNTVYLQMNSLNPEDTAVYYFNAAYKIDFTYDTYDYWGQGTQVTVSS
- polyreactivity (PSR sort gate): low polyreactivity

Sequence: QVQLVESGGGLVQAGGSLRLSCAASGRIFKPNAMGWYRQAPVKEREFVARITRNTGSTYYADSVKGRFTISRDNAKNTVYLQMNSLKPEDTAVYYCAAGAPSYYYYWGQGTQVTVSS
- polyreactivity (PSR sort gate): high polyreactivity

Sequence: QVQLVESGGGLVQAGGSLRLSCAASGRIFRFYAMGWYRQAPGKERELVAAISSRGGSTYDADSVKGRFTISRDNAKNTVYLQMNSLKPEDTAVYYCNAYGSTSQMDYWGQGTQVTVSS
- polyreactivity (PSR sort gate): high polyreactivity

Sequence: QVQLVESGGGLVQAGGSLRLSCAASGRTFSPYDMGWSRQAPGKERELVAAISFSDTITYYADSVKGRFTISRDNAKNTVYLQMNSLKPEDTAVYYCAADAGGYYEWELYDYWGQGTQVTVSS
- polyreactivity (PSR sort gate): low polyreactivity

— the nanobody polyreactivity screen of Harvey et al. (2022)
